From US10376603B2, “Engineered fluorinated biomaterials” (New York University, priority 2015, dated 2019)

Experiments:
Format in all cases: physicochemical
[1] = UV-Vis temperature transition (Tt) at 320 nm; conditions: 50 mM Na2HPO4, 0.5 M NaCl, pH 8.0
Protocol: Proteins were characterized for their temperature transition (Tt) behavior at a wavelength of 320 nm using a UV-Vis Cary-50 (Varian Inc., Cary, N.C.) equipped with a TC125 temperature regulator (Quantum Northwest, Liberty Lake, Wash.). Samples were heated at a rate of 1° C./minute from 15° C. to 85° C. The Tt was determined by taking the first derivative of the normalized absorbance (320 nm) as a function of temperature.

[2] = Doxorubicin loading/encapsulation by gel filtration and absorbance at 485 nm; conditions: 100 μM free doxorubicin, 4° C., 2 hours
Protocol: A mixture of 100 μM free doxorubicin (DOX) (see the extraction method below) and either CE2-RGD or CE2-RGD-TFL and standards (100 μM, 75 μM, 50 μM, 25 μM, 10 μM, 5 μM and 0 μM) were incubated at 4° C. for 2 hours in the dark. After this incubation period, the mixtures were subjected to G-25 Sephadex (Sigma-Aldrich) gel filtration chromatography with fifteen elutions of 50 mM Na2HPO4, 0.5 M NaCl, pH 8.0 at room temperature. The eluted fractions were subjected to absorbance readings ranging from 420-600 nm (Molecular Devices Spectramax M2). The eluted fraction with highest absorbance reading at 485 nm was incorporated in the standard curve trendline equation to determine the total concentration of DOX bound to the protein. That protein sample was also subjected to the BCA assay enhanced protocol to determine the total protein concentration.
Extraction of DOX from a doxorubicin-HCl (DOX-HCl) was required to achieve free hydrophobic doxorubicin for pore encapsulation. […] The final concentration of free DOX was determined by generating a standard curve from absorbance of DOX-HCl from 420-600 nm and incorporating the free DOX into the trendline equation. The absorbance measurement for free DOX concentration determination was taken at 485 nm.

[3] = Transmission electron microscopy of particles; conditions: 0.5 mg/mL
Protocol: Transmission electron microscopy (TEM) experiments were undertaken to visualize and confirm particle sizes. The CE2-RGD-TFL (0.5 mg/mL) was heated to 20° C. or 50° C. for 1.5 hours followed by application of the protein onto copper square mesh TEM grids and 1% uranyl acetate negative staining. The TEM grids were imaged using a FEI Titan Halo 300 kV electron microscope.

[4] = Circular dichroism secondary structure
Protocol: Circular dichroism (CD) spectroscopy was used to confirm the secondary structure. This was accomplished using a Jasco J-815 CD spectrometer with a PTC-423 S single position Peltier temperature control system. For CD experiments assessing the protein structure alone, protein concentrations were kept constant at 0.200 mg/mL in of 50 mM Na2HPO4, 0.5 M NaCl, pH 8.0. The wavelength spectrum was measured over the range of 200-300 nm with a bandwidth (step size) of 1 nm. The scanning mode was continuous at 20 nm/minute. All wavelength CD runs were conducted at 4° C.
In terms of calculations for CD analysis, molar residue ellipticity (θMRE) was calculated from ellipticity (θ) using the following equation: (1) θMRE=θ/(10*Protein Conc.*Path Length*Length of Sequence)

[5] = Dynamic light scattering as a function of temperature; conditions: doxorubicin loaded versus unloaded
Protocol: Dynamic light scattering (DLS) measurements were performed on a Zetasizer Nano Series model Nano ZS90 in a type 21 quartz cuvette with the applied settings: material protein (refractive index 1.450), absorption 0.001, dispersant PBS with a viscosity of 1.0200 cP and refractive index of 1.335. Measurements were taken in triplicates, conducting 10 runs for each measurement, with a delay time of 2 seconds. Approximately, 1.0 mL of 0.5, 0.75 or 1.0 mg/mL CE2-RGD-TFL or CE2-RGD in 50 mM Na2HPO4, 0.5 M NaCl, pH 8.0 was then added to the cell.

B1: CE2-RGD-TFL: fluorinated protein block copolymer, SEQ ID NO:18: COMPcc domain flanked by RGD linkers plus elastin-like domain; all 11 leucines as 5,5,5-trifluoroleucine (protein)
chain: MRGSHHHHHHGSACELAARGDATATATATAACGDLAPQMLRELQETNAALQDVRELLRQQVKEITFLKNTVMESDASGLQAARGDATATATATAVDKPIAASAVPGVGVPGVGVPGFGVPGVGVPGVGVPGVGVPGVGVPGFGVPGVGVPGVGVPLEGSGTGAKLN
modifications: all leucines as 5,5,5-trifluoroleucine
notes: all 11 leucines as 5,5,5-trifluoroleucine
- Tt (transition temperature) ([1]; Conc. 0.20 mg/mL): 52.04 ± 0.84 °C
- Tt (transition temperature) ([1]; Conc. 0.50 mg/mL): 47.87 ± 0.72 °C
- Tt (transition temperature) ([1]; Conc. 0.75 mg/mL): 46.36 ± 0.03 °C
- Tt (transition temperature) ([1]; Conc. 1.00 mg/mL): 45.71 ± 0.51 °C
- available doxorubicin encapsulated upon saturation [2]: 49.1%
- doxorubicin loading per milligram of protein [2]: 29.90±2.68 μg per milligram
- particle appearance (TEM) ([3]; 50° C. for 1.5 hours): amorphous aggregates of no discernible uniformity in size
- particle diameter (TEM) ([3]; 1.5 hour incubation at 20° C.): 30 nm
- secondary structure (circular dichroism) versus CE2-RGD ([4]; 0.200 mg/mL, 4° C.): less structure
- secondary structure (circular dichroism) upon loading of doxorubicin ([4]; doxorubicin loaded versus unloaded): increase in secondary structure
- onset of temperature-driven coacervation (DLS) upon loading of doxorubicin [5]: delay in the onset of temperature-driven coacervation
